Experimental data from US6569434 (MERCK, dated 2003).

Target: T1, rat VEGF A subunit, 164 amino acid mature (secreted) form of the 190 amino acid translation product (rat, UniProt P16612 27-214)
T1 construct: also called VEGF AB, A subunit; A chain
T1 sequence: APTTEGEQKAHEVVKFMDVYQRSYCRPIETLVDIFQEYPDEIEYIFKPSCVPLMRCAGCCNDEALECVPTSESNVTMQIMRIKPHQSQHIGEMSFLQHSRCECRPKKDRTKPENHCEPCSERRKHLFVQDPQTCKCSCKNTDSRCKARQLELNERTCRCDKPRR
Assay: purified native VEGF AB reduced and carboxymethylated; subunits separated by C4 reverse phase HPLC and N-terminally sequenced; single 58 kDa band non-reduced against about 23 kDa reduced on SDS-PAGE

B1: rat VEGF B subunit, 135 amino acid mature form derived from the 158 amino acid full length form (ligand)
chain: ALSAGNNSTEMEVVPFNEVWGRSYCRPMEKLVYIADEHPNEVSHIFSPSCVLLSRCSGCCGDEGLHCVALKTANITMQILKIPPNRDPHSYVEMTFSQDVLCECRPILETTKAERRKTKGKRKQSKTPQTEEPHL
notes: Native subunit purified from GS-9L conditioned medium as part of VEGF AB; also called VEGF AB, B subunit; B chain
  binding result: binds
